Assays:
[1] = biological target: T1, hITIP0033-G1T4k.one//VHn-G1T4h.one.H435R
T1 chain 1: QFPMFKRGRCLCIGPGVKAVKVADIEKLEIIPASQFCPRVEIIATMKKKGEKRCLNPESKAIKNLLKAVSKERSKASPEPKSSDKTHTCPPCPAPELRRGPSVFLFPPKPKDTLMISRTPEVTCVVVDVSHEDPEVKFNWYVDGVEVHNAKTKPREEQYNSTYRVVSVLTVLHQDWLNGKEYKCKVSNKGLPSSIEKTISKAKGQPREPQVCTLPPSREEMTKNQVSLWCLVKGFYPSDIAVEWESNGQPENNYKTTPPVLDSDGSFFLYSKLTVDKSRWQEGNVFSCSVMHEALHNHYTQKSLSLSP
T1 chain 2: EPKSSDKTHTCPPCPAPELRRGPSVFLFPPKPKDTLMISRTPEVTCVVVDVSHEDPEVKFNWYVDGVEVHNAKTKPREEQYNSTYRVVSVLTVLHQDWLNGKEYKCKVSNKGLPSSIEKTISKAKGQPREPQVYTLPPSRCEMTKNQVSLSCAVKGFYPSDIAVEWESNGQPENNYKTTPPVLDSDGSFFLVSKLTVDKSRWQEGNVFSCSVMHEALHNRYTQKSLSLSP

[2] = biological target: T2, hITIP0025-G1T4k.one//VHn-G1T4h.one.H435R
T2 chain 1: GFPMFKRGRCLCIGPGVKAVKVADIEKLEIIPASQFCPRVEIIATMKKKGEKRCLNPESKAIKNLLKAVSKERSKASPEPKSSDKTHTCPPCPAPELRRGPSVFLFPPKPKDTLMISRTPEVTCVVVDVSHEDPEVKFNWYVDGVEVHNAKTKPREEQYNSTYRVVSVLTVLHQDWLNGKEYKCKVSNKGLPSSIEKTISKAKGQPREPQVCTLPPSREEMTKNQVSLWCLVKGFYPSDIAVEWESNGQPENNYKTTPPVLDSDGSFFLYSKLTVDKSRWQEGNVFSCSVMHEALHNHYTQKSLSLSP
T2 chain 2: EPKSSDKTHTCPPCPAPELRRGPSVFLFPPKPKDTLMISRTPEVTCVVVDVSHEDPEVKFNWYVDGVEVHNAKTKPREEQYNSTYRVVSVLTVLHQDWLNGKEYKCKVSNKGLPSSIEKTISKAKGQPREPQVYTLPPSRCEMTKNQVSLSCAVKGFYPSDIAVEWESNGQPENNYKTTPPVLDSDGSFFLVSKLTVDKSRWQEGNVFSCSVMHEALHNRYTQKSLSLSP

[3] = biological target: T3, hITIP0036-G1T4k.one//VHn-G1T4h.one.H435R
T3 chain 1: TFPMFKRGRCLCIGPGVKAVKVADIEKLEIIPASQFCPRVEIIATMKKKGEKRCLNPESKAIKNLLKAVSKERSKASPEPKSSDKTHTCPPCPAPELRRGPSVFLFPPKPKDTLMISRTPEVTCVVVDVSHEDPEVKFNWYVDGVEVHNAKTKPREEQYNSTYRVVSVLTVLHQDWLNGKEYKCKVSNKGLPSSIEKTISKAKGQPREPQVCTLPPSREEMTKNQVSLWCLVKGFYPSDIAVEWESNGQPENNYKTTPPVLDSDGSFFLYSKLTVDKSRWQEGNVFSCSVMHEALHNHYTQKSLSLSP
T3 chain 2: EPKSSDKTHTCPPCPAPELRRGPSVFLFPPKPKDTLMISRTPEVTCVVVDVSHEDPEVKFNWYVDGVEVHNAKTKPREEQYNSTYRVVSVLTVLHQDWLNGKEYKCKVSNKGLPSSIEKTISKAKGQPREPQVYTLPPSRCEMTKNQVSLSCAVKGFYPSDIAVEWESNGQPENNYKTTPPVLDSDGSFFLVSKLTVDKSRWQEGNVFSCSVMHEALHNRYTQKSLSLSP

[4] = biological target: T4, hITIP0031-G1T4k.one//VHn-G1T4h.one.H435R
T4 chain 1: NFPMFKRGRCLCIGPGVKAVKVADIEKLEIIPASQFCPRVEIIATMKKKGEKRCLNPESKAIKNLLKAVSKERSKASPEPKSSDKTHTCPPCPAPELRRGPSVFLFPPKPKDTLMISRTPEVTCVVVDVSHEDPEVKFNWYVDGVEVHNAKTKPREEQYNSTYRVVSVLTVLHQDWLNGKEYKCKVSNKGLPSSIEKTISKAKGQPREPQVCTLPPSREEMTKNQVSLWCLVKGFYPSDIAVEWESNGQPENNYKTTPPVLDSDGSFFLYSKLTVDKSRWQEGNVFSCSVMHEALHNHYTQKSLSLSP
T4 chain 2: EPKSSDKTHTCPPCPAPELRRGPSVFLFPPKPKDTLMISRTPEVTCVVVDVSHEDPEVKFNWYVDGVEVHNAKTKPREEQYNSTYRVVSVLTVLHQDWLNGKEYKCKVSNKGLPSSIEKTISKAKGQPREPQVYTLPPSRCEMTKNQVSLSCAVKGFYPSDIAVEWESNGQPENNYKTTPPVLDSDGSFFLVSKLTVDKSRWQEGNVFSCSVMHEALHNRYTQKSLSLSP

[5] = biological target: T5, hCXCL11.0035-G1T4k.one//VHn-G1T4h.one.H435R
T5 chain 1: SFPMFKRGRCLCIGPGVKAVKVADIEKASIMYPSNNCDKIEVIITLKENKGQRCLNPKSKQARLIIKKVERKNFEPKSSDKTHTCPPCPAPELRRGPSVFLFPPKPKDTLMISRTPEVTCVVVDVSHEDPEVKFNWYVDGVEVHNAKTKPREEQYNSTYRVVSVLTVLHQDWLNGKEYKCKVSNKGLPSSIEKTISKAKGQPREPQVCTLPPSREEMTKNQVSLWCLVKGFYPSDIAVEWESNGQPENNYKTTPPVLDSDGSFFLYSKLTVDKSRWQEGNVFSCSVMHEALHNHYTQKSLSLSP
T5 chain 2: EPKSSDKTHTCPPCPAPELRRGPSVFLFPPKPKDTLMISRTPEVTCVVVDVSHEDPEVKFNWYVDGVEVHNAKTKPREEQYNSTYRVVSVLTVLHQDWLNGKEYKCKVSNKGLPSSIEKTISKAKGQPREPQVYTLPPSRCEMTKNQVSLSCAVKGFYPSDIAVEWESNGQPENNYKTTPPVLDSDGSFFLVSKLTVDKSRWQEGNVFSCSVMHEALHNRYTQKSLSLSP

[6] = biological target: T6, hITIP0023-G1T4k.one//VHn-G1T4h.one.H435R
T6 chain 1: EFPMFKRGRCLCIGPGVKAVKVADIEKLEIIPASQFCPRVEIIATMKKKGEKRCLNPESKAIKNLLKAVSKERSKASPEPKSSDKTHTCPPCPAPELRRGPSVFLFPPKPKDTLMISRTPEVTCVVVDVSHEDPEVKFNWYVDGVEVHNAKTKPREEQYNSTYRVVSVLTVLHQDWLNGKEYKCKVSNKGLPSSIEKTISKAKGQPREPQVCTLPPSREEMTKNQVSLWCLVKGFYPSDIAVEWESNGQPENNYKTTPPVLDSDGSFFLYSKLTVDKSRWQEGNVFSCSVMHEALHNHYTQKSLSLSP
T6 chain 2: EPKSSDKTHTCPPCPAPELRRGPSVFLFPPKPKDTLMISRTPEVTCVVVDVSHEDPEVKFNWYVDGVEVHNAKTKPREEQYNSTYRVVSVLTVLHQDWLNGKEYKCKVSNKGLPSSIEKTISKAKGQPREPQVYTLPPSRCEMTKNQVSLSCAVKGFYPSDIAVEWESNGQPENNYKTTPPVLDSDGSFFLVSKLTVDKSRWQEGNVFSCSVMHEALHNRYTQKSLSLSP

[7] = biological target: T7, hITIP-G1T4k.one//VHn-G1T4h.one.H435R
T7 chain 1: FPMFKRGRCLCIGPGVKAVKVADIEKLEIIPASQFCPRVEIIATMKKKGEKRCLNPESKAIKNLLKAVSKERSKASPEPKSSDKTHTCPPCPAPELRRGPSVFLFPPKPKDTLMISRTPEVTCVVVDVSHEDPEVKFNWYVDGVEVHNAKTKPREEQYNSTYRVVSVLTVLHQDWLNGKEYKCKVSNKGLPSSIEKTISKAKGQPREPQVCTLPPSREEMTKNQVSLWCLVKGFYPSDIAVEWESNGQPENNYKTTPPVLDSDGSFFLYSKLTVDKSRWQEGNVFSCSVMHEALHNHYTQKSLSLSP
T7 chain 2: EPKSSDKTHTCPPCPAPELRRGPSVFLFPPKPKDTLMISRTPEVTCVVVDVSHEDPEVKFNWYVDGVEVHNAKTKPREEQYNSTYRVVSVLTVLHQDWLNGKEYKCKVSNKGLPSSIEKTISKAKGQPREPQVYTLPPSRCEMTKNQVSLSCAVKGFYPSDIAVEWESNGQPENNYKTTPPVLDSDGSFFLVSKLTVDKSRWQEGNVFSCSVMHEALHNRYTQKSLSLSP

[8] = biological target: T8, hCXCL11.0036-G1T4k.one//VHn-G1T4h.one.H435R
T8 chain 1: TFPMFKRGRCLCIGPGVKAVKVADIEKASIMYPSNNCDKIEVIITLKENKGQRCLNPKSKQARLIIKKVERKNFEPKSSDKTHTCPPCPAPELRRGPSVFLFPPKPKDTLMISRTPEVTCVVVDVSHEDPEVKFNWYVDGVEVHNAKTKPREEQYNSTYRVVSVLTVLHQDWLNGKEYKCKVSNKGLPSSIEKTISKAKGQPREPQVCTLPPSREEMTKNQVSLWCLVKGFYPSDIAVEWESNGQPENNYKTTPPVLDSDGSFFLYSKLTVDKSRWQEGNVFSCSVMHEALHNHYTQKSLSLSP
T8 chain 2: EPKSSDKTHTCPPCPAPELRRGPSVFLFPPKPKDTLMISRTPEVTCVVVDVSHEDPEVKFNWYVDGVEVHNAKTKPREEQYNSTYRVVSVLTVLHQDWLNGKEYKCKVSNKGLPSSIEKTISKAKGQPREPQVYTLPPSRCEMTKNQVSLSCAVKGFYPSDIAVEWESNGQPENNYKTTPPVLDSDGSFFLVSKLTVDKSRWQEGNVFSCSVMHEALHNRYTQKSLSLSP

B1: human dipeptidyl peptidase IV (human DPPIV, hDPPIV) (Biolegend, 764102) (protein)
chain: NKGTDDATADSRKTYTLTDYLKNTYRLKLYSLRWISDHEYLYKQENNILVFNAEYGNSSVFLENSTFDEFGHSINDYSISPDGQFILLEYNYVKQWRHSYTASYDIYDLNKRQLITEERIPNNTQWVTWSPVGHKLAYVWNNDIYVKIEPNLPSYRITWTGKEDIIYNGITDWVYEEEVFSAYSALWWSPNGTFLAYAQFNDTEVPLIEYSFYSDESLQYPKTVRVPYPKAGAVNPTVKFFVVNTDSLSSVTNATSIQITAPASMLIGDHYLCDVTWATQERISLQWLRRIQNYSVMDICDYDESSGRWNCLVARQHIEMSTTGWVGRFRPSEPHFTLDGNSFYKIISNEEGYRHICYFQIDKKDCTFITKGTWEVIGIEALTSDYLYYISNEYKGMPGGRNLYKIQLSDYTKVTCLSCELNPERCQYYSVSFSKEAKYYQLRCSGPGLPLYTLHSSVNDKGLRVLEDNSALDKMLQNVQMPSKKLDFIILNETKFWYQMILPPHFDKSKKYPLLLDVYAGPCSQKADTVFRLNWATYLASTENIIVASFDGRGSGYQGDKIMHAINRRLGTFEVEDQIEAARQFSKMGFVDNKRIAIWGWSYGGYVTSMVLGSGSGVFKCGIAVAPVSRWEYYDSVYTERYMGLPTPEDNLDHYRNSTVMSRAENFKQVEYLLIHGTADDNVHFQQSAQISKALVDVGVDFQAMWYTDEDHGIASSTAHQHIYTHMSHFIKQCFSLP
[1]
  cleavage by hDPPIV (LC/MS mass): showed no mass change suggestive of peptide bond cleavage by hDPPIV treatment
[2]
  cleavage by hDPPIV (LC/MS mass): showed no mass change suggestive of peptide bond cleavage by hDPPIV treatment
[3]
  cleavage by hDPPIV (LC/MS mass): showed no mass change suggestive of peptide bond cleavage by hDPPIV treatment
[4]
  cleavage by hDPPIV (LC/MS mass): showed no mass change suggestive of peptide bond cleavage by hDPPIV treatment
[5]
  cleavage by hDPPIV (LC/MS mass): showed no mass change suggestive of peptide bond cleavage by hDPPIV treatment
[6]
  cleavage by hDPPIV (LC/MS mass): showed no mass change suggestive of peptide bond cleavage by hDPPIV treatment
[7]
  cleavage by hDPPIV (LC/MS mass): DPPIV treatment reduced each of the masses
[8]
  cleavage by hDPPIV (LC/MS mass): showed no mass change suggestive of peptide bond cleavage by hDPPIV treatment
